Values of other authors, collected in patent US9700485B2, “Delamination resistant pharmaceutical glass containers containing active pharmaceutical ingredients” (Corning Incorporated, priority 2013, dated 2017).
Read-outs that look alike come from different tables or passages of the source.

Experiments:
[1] = in use test, 10 samples, cited from earlier work
[2] = shaking test, 5 samples, cited from earlier work
human IL-17 = human IL-17 (Homo sapiens, UniProt Q16552); conditions: cited from earlier work; for Kd: read-out: KD or binding affinity
[3] = −20° C. up to 16 days; DOE; cited from earlier work
[4] = 40° C. up to 14 days; DOE; cited from earlier work
EGFR [5] = biological target: T1, EGFR (Homo sapiens, UniProt P00533); conditions: cited from earlier work
EGFR-AP fusion protein = conditions: cited from earlier work; for Koff / Kon: BIAcore, immobilized EGFR-AP fusion protein
EGFR on HT29 cells = biological target: T2, EGFR on HT29 cells (Homo sapiens, UniProt P00533); conditions: 10 to 100 nM; cited from earlier work
T2 construct: HT29 cells were seeded at 2×10^4 cells per well; endogenous in cells; host or cells: HT29

MAP kinases p44/p42 = conditions: A431, BxPC3 and HT-29 cells; EGF stimulation; cited from earlier work
DiFi cells [6] = conditions: 72 hours; cited from earlier work
DiFi cells [7] = conditions: cited from earlier work
A431 cells = conditions: cited from earlier work; for tumor growth: three times per week
BxPC-3 cells = conditions: 1.0 mg/mouse/injection; out of 8 mice; cited from earlier work
A431 and BxPC3 xenograft = A431 and BxPC3 xenograft sections; cited from earlier work
EGFR [8] = biological target: T1, EGFR; parameters: endogenous in cells; host or cells: A431; inhibition of EGFR phosphorylation: dose or concentration left out as unconfirmed; conditions: cited from earlier work
EGFR [9] = biological target: T1, EGFR; parameters: phosphorylation assay, was carried out using BxPC3 or A431 cells; endogenous in cells; host or cells: BxPC3 or A431; conditions: BxPC3 and A431 cells; vs control antibody; cited from earlier work

Chain of human IL-17 (Q16552 24-155): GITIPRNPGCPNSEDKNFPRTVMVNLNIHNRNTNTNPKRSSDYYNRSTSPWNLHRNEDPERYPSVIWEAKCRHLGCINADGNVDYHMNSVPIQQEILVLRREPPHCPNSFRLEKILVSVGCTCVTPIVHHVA

Substance: 21^A-Gly-30^Ba-L-Arg-30^B-L-Arg human insulin [Insulin glargine]
- Number of vials with particle formation after 7 days ([1]; storage for 1 month at 37° C.): 0
- Number of vials with particle formation after 14 days ([1]; storage for 1 month at 37° C.): 10
- Number of vials with particle formation after 21 days ([1]; storage for 1 month at 37° C.): 10
- Number of vials with particle formation after 28 days ([1]; storage for 1 month at 37° C.): 10
- Number of vials with particle formation after 7 days ([1]; storage for 3 months at 5° C.): 7
- Number of vials with particle formation after 14 days ([1]; storage for 3 months at 5° C.): 10
- Number of vials with particle formation after 21 days ([1]; storage for 3 months at 5° C.): 10
- Number of vials with particle formation after 28 days ([1]; storage for 3 months at 5° C.): 10
- Number of vials with particle formation after 7 days ([1]; storage for 3 months at 25° C.): 9
- Number of vials with particle formation after 14 days ([1]; storage for 3 months at 25° C.): 10
- Number of vials with particle formation after 21 days ([1]; storage for 3 months at 25° C.): 10
- Number of vials with particle formation after 28 days ([1]; storage for 3 months at 25° C.): 10
- Number of vials with particle formation after 7 days ([1]; storage for 3 months at 37° C.): 5
- Number of vials with particle formation after 14 days ([1]; storage for 3 months at 37° C.): 9
- Number of vials with particle formation after 21 days ([1]; storage for 3 months at 37° C.): 10
- Number of vials with particle formation after 28 days ([1]; storage for 3 months at 37° C.): 10
- Number of vials with particle formation after 7 days ([1]; storage for 6 months at 5° C.): 7
- Number of vials with particle formation after 14 days ([1]; storage for 6 months at 5° C.): 10
- Number of vials with particle formation after 21 days ([1]; storage for 6 months at 5° C.): 10
- Number of vials with particle formation after 28 days ([1]; storage for 6 months at 5° C.): 10
- Number of vials with particle formation after 7 days ([1]; storage for 6 months at 25° C.): 10
- Number of vials with particle formation after 14 days ([1]; storage for 6 months at 25° C.): 10
- Number of vials with particle formation after 21 days ([1]; storage for 6 months at 25° C.): 10
- Number of vials with particle formation after 28 days ([1]; storage for 6 months at 25° C.): 10
- Number of vials with particle formation after 7 days ([1]; storage for 6 months at 37° C.): 10
- Number of vials with particle formation after 14 days ([1]; storage for 6 months at 37° C.): 10
- Number of vials with particle formation after 21 days ([1]; storage for 6 months at 37° C.): 10
- Number of vials with particle formation after 28 days ([1]; storage for 6 months at 37° C.): 10
- Number of Vials >15 FNU, 0 days ([2]; storage for 1 month at 5° C.): 0
- Number of Vials >15 FNU, 0.5 days ([2]; storage for 1 month at 5° C.): 0
- Number of Vials >15 FNU, 1 day ([2]; storage for 1 month at 5° C.): 0
- Number of Vials >15 FNU, 2 days ([2]; storage for 1 month at 5° C.): 2
- Number of Vials >15 FNU, 3 days ([2]; storage for 1 month at 5° C.): 3
- Number of Vials >15 FNU, 4 days ([2]; storage for 1 month at 5° C.): 3
- Number of Vials >15 FNU, 6 days ([2]; storage for 1 month at 5° C.): 4
- Number of Vials >15 FNU, 8 days ([2]; storage for 1 month at 5° C.): 4
- Number of Vials >15 FNU, 10 days ([2]; storage for 1 month at 5° C.): 4
- Number of Vials >15 FNU, 0 days ([2]; storage for 1 month at 25° C.): 0
- Number of Vials >15 FNU, 0.5 days ([2]; storage for 1 month at 25° C.): 0
- Number of Vials >15 FNU, 1 day ([2]; storage for 1 month at 25° C.): 0
- Number of Vials >15 FNU, 2 days ([2]; storage for 1 month at 25° C.): 1
- Number of Vials >15 FNU, 3 days ([2]; storage for 1 month at 25° C.): 1
- Number of Vials >15 FNU, 4 days ([2]; storage for 1 month at 25° C.): 1
- Number of Vials >15 FNU, 6 days ([2]; storage for 1 month at 25° C.): 1
- Number of Vials >15 FNU, 8 days ([2]; storage for 1 month at 25° C.): 2
- Number of Vials >15 FNU, 10 days ([2]; storage for 1 month at 25° C.): 3
- Number of Vials >15 FNU, 0 days ([2]; storage for 1 month at 37° C.): 0
- Number of Vials >15 FNU, 0.5 days ([2]; storage for 1 month at 37° C.): 0
- Number of Vials >15 FNU, 1 day ([2]; storage for 1 month at 37° C.): 0
- Number of Vials >15 FNU, 2 days ([2]; storage for 1 month at 37° C.): 2
- Number of Vials >15 FNU, 3 days ([2]; storage for 1 month at 37° C.): 5
- Number of Vials >15 FNU, 4 days ([2]; storage for 1 month at 37° C.): 5
- Number of Vials >15 FNU, 6 days ([2]; storage for 1 month at 37° C.): 5
- Number of Vials >15 FNU, 8 days ([2]; storage for 1 month at 37° C.): 5
- Number of Vials >15 FNU, 10 days ([2]; storage for 1 month at 37° C.): 5

Substance: IL-17 receptor Fc-fusion protein: IL-17 receptor Fc-fusion protein (R&D #177-IR)
- fast off-rate (human IL-17; Bivalent analyte model, 25° C.): 20.3 s⁻¹
- on-rate (human IL-17; Bivalent analyte model, 25° C.): 106000 M⁻¹ s⁻¹
- slow off-rate (human IL-17; Bivalent analyte model, 25° C.): 0.000163 s⁻¹
- Kd (human IL-17; from fast off-rate): 190000 nM
- Kd (human IL-17; from slow off-rate): 1.5 nM

Substance: IMC-1121B: fully human monoclonal (IgG1) anti-VEGFR-2 (flk-1) antibody
- optimal pH [3]: 6.0
- optimal buffer [4]: histidine at pH 6.0

Substance: IMC-11F8: fully human monoclonal antibody (IgG1) that binds to human EGFR
- binding to EGFR (ELISA) (EGFR [5]): comparable binding to EGFR
- Koff (EGFR-AP fusion protein; Format Fab): 36.7 ± 8.5 10^−4s^−1
- Kon (EGFR-AP fusion protein; Format Fab): 22.9 ± 9.9 10^5 M^−1s^−1
- Kd (EGFR-AP fusion protein; Format Fab, calculated as koff/kon): 1.78 ± 0.5 nM
- Koff (EGFR-AP fusion protein; Format IgG): 5.8 ± 2.2 10^−4s^−1
- Kon (EGFR-AP fusion protein; Format IgG): 18.6 ± 7.7 10^5 M^−1s^−1
- inhibition of ^125I-EGF binding (EGFR on HT29 cells): as efficient as IMC-C225 in inhibiting ^125I-EGF binding to EGFR on HT29 cells
- p44/42 MAP kinases phosphorylation (MAP kinases p44/p42): blocked p44/42 MAP kinases phosphorylation following EGF stimulation in A431, BxPC3 and HT-29 cells in a dose-dependent manner
- inhibition of cell proliferation (MTT) (DiFi cells [6]): as potent an inhibitor of cell proliferation as IMC-C225
- ADCC activity (DiFi cells [7]): mediate cell death via activation of the Antibody Dependent Cellular Cytotoxicity
- tumor growth (A431 cells; 0.3 mg dose i.p.): progression of tumor growth is retarded
- tumor growth (A431 cells; 1 mg dose i.p.): as effective as IMC-C225 (CETUXIMAB) in suppressing or inhibiting tumor growth as compared to control animals
- tumor regressions (A431 cells; 1.0 mg/mouse/injection, out of 8 animals): 6
- tumor regression (BxPC-3 cells): 5
- Ki-67 positive cells (A431 and BxPC3 xenograft): reduced the percentage of Ki-67 positive cells across the entire tumor section
- tumor cell density and necrotic area (IHC) (A431 and BxPC3 xenograft): markedly reduced the tumor cell density and increased the area of necrotic acellular debris within the tumors
- inhibition of EGFR phosphorylation (EGFR [8]; A431, BxPC3, HT-29, lowest antibody concentration tested): Greater than 70%
- EGFR phosphorylation (Western blot) (EGFR [8]; A431 cells): inhibits EGFR phosphorylation
- phosphorylation of EGFR (KIRA) (EGFR [9]): marked decrease in phosphorylation of EGFR
